Reference: patent US20050032689A1, “Methods for treatment or diagnosis of disease or disorders associated with an APB domain” (New York University, priority 1994, published 2005)

System: EGF receptor mutants (Y5F, CD196)
Assay: Binding of GST-Shc 1-209 to EGF receptor autophosphorylation mutants from NIH 3T3 lysates
Conditions: all tyrosine-phosphorylated residues mutated to phenylalanine or carboxyl terminus deleted
Method: FIG. 3. Association of GST-Shc 1-209 with mutant forms of the EGF receptor. NIH 3T3 cells overexpressing various EGF receptor mutants were stimulated with EGF (200 ng/ml) for 3 min and then lysed. Wild type EGF receptor (W.T.) contains all five known EGF receptor autophosphorylation sites, Y2F has Tyr-992 and Tyr-1068 mutated to phenylalanine, Y5F has all five known EGF receptor autophosphorylation sites mutated to phenylalanine, and CD196 has a carboxyterminal deletion of 196 amino acids deleting all known autophosphorylation sites (Li, N., et al. (1994) Oncogene (In Press). Beads containing GST-Shc 1-209 fusion protein (3 μg) were added to the various lysates containing equal amounts of the receptor (left panels) or the lysates were immunoprecipitated with the anti-EGF receptor (EGFR) antibody (mAb108) (right panels). All samples were incubated at 4° C. for 90 min. The bound proteins were then washed, subjected to SDS-PAGE and transferred to nitrocellulose. […]
Binding Studies—GST fusion proteins were expressed using standard techniques (Ausubel, F. M., et al. Current Protocols in Molecular Biology, (1992) Wiley Interscience, New York). Protein concentration was determined by SDS-PAGE (polyacrylamide gel electrophoresis) using bovine serum albumin as a standard. […]

binding to EGF receptor mutants lacking autophosphorylation sites: completely eliminated Shc 1-209 binding
B1: Shc 1-209: Shc amino terminus, first 209 amino acids of murine p52Shc, generated as a GST fusion protein (protein, UniProt P98083 1-209, looked up, fragment)
chain: MDLLPPKPKYNPLRNESLSSLEEGASGSTPPEELPSPSASSLGPILPPLPGDDSPTTLCSFFPRMSNLKLANPAGGRLGPKGEPGKAAEDGEGSAGAALRDSGLLPLLQDMNKLSGGGGRRTRVEGGQLGGEEWTRHGSFVNKPTRGWLHPNDKVMGPGVSYLVRYMGCVEVLQSMRALDFNTRTQVTREAISLVCEAVPGAKGATRRR
modifications: GST fusion
notes: Shc amino terminus, first 209 amino acids of murine p52Shc, generated as a GST fusion protein
